Target: Interleukin-1 receptor on human fibroblasts (NHDF, normal human dermal fibroblasts) (human)
Assay: cell-based or functional assay

Interleukin-1 receptor on human fibroblasts (NHDF, normal human dermal fibroblasts) (human), sequence (P14778 18-569): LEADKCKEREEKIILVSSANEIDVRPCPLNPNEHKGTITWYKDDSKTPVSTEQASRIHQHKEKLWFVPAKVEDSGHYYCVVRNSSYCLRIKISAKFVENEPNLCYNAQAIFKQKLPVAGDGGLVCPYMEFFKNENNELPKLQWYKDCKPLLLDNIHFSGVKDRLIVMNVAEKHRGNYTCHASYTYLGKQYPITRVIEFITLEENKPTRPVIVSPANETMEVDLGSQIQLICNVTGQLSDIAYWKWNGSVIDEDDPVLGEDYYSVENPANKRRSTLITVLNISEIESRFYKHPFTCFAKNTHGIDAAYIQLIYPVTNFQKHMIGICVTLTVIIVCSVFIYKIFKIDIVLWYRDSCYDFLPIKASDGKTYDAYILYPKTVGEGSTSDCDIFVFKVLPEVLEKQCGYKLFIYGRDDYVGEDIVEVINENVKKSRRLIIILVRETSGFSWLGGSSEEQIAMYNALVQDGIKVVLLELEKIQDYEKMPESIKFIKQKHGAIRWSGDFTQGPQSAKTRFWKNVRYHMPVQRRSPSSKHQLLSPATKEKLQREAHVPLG

inhibition of IL-1β stimulated PGE2 production in CCD 1098 human fibroblast cells (PGE2 ELISA): 40 to 60 % inhibition
Substance: IL-1 Hy1 Receptor Antagonist, non-tagged / preparation not specified (from UniProt Q9UBH0 1-155) (ligand)

Reference: patent US6541623
